Reference: PMC7457537

Columns and labels:
[1] = molecular target: HIV-1 integrase with methionine preceding the N-terminal phenylalanine (IN MF), full-length (HIV-1 (NL4-3)); assay: AUC; sedimentation velocity, 25 °C, 40,000 rpm, 20 mM HEPES-NaOH pH 7.5, 1 M NaCl, 7 mM CHAPS, 10 µM ZnOAc2, 10 µM β-mercaptoethanol; c(s) model in SEDFIT; self-association
[2] = molecular target: HIV-1 integrase with methionine preceding the N-terminal phenylalanine (IN MF), full-length (HIV-1 (NL4-3)); assay: SEC-MALS; Superdex 200 10/300, 25 °C, 20 mM HEPES-NaOH pH 7.5, 500 mM-1 M NaCl, 7 mM CHAPS, 10 µM ZnOAc2, 10 µM β-mercaptoethanol; eluted concentrations ~8-10 µM (IN 1F, IN MF); self-association
[3] = molecular target: HIV-1 integrase with methionine preceding the N-terminal phenylalanine (IN MF), full-length (HIV-1 (NL4-3)); assay: AUC; sedimentation equilibrium, 4 °C, same data and buffer as the monomer-dimer fit; attempted fit of a dimer-tetramer equilibrium: tetramer to dimers
[4] = molecular target: HIV-1 integrase with methionine preceding the N-terminal phenylalanine (IN MF), full-length (HIV-1 (NL4-3)); assay: AUC; sedimentation equilibrium, 4 °C, 20 mM HEPES-NaOH pH 7.5, 1 M NaCl, 7 mM CHAPS, 10 µM ZnOAc2, 10 µM β-mercaptoethanol; global fit at 16, 20, 24 krpm (SEDPHAT); dimer to monomers

HIV-1 integrase with methionine preceding the N-terminal phenylalanine (IN MF), full-length (enzyme)
stoichiometry N [1]: 2 | stoichiometry N [2]: 2 | Kd [3]: > 1 mM | Kd [4]: 127 µM
